“Also recorded” adds a separate entry of the source.
Tests used:
mouse marrow cells = experiment: Colony stimulating activity: colony formation of mouse marrow cells on single-layer soft agar gel; type: cell-based
Method: (§1) The colony stimulating activity of the CSF according to the invention was determined by the method involving colony formation of mouse marrow cells on a single-layer soft agar gel. Thus, the CSF sample was admixed with 1 ml of McCoy's 5A medium (GIBCO) containing 0.3% agar, 20% fetal calf serum (FCS) and 1×10^5 mouse marrow cells. Incubation was carried out at 37° C. for 7 days under a stream of 7.5% CO2 -containing air. Thereafter, cell aggregates consisting of 50 or more cells were judged as colonies and counted. The colony stimulating activity was expressed in units. One unit was defined as the quantity of CSF required for the formation of one colony. The specific activity was expressed in terms of the number of colonies (units) formed per milligram of the CSF protein. […] The colonies formed were stained with hematoxylin-eosin for morphological classification.

[1] = system: patients with thrombocytopenia; experiment: Administration to patients with thrombocytopenia (summary of clinical test examples 1 and 2); type: in vivo, human; conditions: administration in the course of chemotherapy
From the text: A malignant tumor patient was subjected to chemotherapy (first chemotherapy), then merely observed for a period (control phase) and, after a second chemotherapy, administered with 8×10^6 units of a glycoprotein preparation comprising the prepared in Reference Example 1 as active ingredient by intravenous drip for 7 consecutive days (preparation administration phase). Blood granulocytes and platelets were counted at timed intervals. The minimum platelet count and the number of days required for the platelet level to regain a level of at least 10^5 /mm^3 in the control phase and in the preparation administration phase are comparatively shown in Table 4.
Ten malignant tumor patients were subjected to a first chemotherapy, then observed without any treatment for a period (control phase) and, after a second chemotherapy, administered with 8×10^6 units of a glycoprotein preparation comprising the CSF prepared in Reference Example 1 as active ingredient by intravenous drip for 7 consecutive days (preparation administration phase). Blood platelets were counted at timed intervals. The minimum platelet count and the number of days required for the platelet count to regain a level of at least 10^5 /mm^3 in the control phase and in the preparation administration phase are comparatively shown in Table 5.

[2] = Isoelectric point by polyacrylamide gel isoelectric focusing and sucrose density gradient isoelectric focusing; type: physicochemical
From the text: The isoelectric point (pI) as determined by the polyacrylamide gel isoelectric focusing and sucrose density gradient isoelectric focusing techniques is 3.1-3.7.

[3] = Thermal stability: colony stimulating activity after heating; type: physicochemical; conditions: 1 μg/ml, dilute buffer pH 7.0, 60±0.5° C., 60 minutes
Method: The CSF was dissolved in a dilute buffer (pH 7.0) to a concentration of 1 μg/ml, and the solution was heated at 60±0.5° C. for 60 minutes and then assayed for colony stimulating activity (to be mentioned later herein).
as §1

B1: CSF: human monocyte-macrophage colony stimulating factor, glycoprotein homodimer of two identical subunits (35,000-45,000 daltons each), purified from human urine (protein, UniProt P09603 33-554, looked up)
Macrophage colony-stimulating …: EEVSEYCSHMIGSGHLQSLQRLIDSQMETSCQITFEFVDQEQLKDPVCYLKKAFLLVQDIMEDTMRFRDNTPNAIAIVQLQELSLRLKSCFTKDYEEHDKACVRTFYETPLQLLEKVKNVFNETKNLLDKDWNIFSKNCNNSFAECSSQDVVTKPDCNCLYPKAIPSSDPASVSPHQPLAPSMAPVAGLTWEDSEGTEGSSLLPGEQPLHTVDPGSAKQRPPRSTCQSFEPPETPVVKDSTIGGSPQPRPSVGAFNPGMEDILDSAMGTNWVPEEASGEASEIPVPQGTELSPSRPGGGSMQTEPARPSNFLSASSPLPASAKGQQPADVTGTALPRVGPVRPTGQDWNHTPQKTDHPSALLRDPPEPGSPRISSLRPQGLSNPSTLSAQPQLSRSHSSGSVLPLGELEGRRSTRDRRSPAEPEGGPASEGAARPLPRFNSVPLTDTGHERQSEGSFSPQLQESVFHLLVPSVILVLLAVGGLLFYRWRRRSHQEPQRADSPLEQPEGSPLTQDDRQVELPV
modifications: urinary homodimer
notes: human monocyte-macrophage colony stimulating factor, glycoprotein homodimer of two identical subunits (35,000-45,000 daltons each), purified from human urine
In the case of B1, the specific activity (mouse marrow cells; Reference Example 2, CSF purified with antibody-bound carrier) is reported as 5.2×10^7 units/mg, the specific activity (mouse marrow cells; Reference Example 2, CSF-containing solution before antibody-bound carrier treatment) is reported as 2 ×10^5 units/mg and the “monocyte-macrophage colonies among the colonies formed” value (mouse marrow cells; hematoxylin-eosin staining, morphological classification) is reported as “at least 95%”. For the same molecule, the specific activity (mouse marrow cells; purification step (1) DEAE-cellulose) was 1.6 × 10^5 units/mg, the specific activity (mouse marrow cells; purification step (2) Sephacryl S-300) was 5.7 × 10^5 units/mg and the specific activity (mouse marrow cells; purification step (3) Phenyl-Sepharose) was 8.8 × 10^6 units/mg. The specific activity (mouse marrow cells; purification step (4) TSKG-3,000 SW) was 2.0 × 10^7 units/mg, the specific activity (mouse marrow cells; purification step (5) Hi-Pore RP-304 (final)) was 1.4 × 10^8 units/mg and the “specific activity (colony stimulating activity)” value (mouse marrow cells; purified CSF, mouse marrow cells, 7 days at 37° C., one unit = one colony) was 1.4×10^8 units per milligram of protein. For the same molecule, the “restoration of a normal platelet level” value [1] was “rapid restoration of a normal platelet level”, the “isoelectric point (pI)” value [2] was 3.1-3.7 and the “thermal stability (colony stimulating activity after heating)” value [3] was “The biological activity is not lost; also recorded: Almost no activity decrease was observed”.
